# Reference: publication PMC3528742
# T1: human cytosolic NADP+-dependent malic enzyme, wild type (human), P48163
# T1 chain: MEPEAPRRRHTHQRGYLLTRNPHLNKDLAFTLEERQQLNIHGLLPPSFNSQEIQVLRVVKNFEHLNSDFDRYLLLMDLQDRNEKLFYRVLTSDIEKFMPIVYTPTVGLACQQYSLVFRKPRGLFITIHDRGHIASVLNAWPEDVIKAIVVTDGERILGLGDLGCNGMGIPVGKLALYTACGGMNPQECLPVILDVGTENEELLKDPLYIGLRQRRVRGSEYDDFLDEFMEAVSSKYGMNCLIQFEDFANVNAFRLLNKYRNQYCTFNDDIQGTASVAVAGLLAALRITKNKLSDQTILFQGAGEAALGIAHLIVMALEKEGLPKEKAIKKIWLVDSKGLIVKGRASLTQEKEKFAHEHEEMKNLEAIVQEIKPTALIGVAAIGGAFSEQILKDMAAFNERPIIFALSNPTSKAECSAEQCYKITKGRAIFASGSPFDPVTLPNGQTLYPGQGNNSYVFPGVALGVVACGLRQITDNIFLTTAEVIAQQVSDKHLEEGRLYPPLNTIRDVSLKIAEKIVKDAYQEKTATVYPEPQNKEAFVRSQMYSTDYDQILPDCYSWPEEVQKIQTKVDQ
# B1: human cytosolic NADP+-dependent malic enzyme, wild type, P48163 1-572 (enzyme)
# chain: T1 chain
# Assays:
# [1] = target: human c-NADP-ME H51A/D90A (human) (UniProt P48163); assay: AUC; sedimentation velocity, 0.3 mg/ml protein, 30 mM Tris-acetate pH 7.4, without urea, 20°C, 42,000 rpm, SEDFIT continuous size distribution
# [2] = target: human c-NADP-ME H51A/D139A (human) (UniProt P48163); assay: as above
# [3] = target: human c-NADP-ME H142A (human) (UniProt P48163); assay: as above
# [4] = target: human c-NADP-ME H142A/D568A (human) (UniProt P48163); assay: as above
# [5] = target: human c-NADP-ME W572A (human) (UniProt P48163); assay: as above
# [6] = target: T1, human cytosolic NADP+-dependent malic …; assay: AUC; sedimentation velocity, 0.3 mg/ml protein, preincubated with 2 M urea in 30 mM Tris-acetate pH 7.4 at 25°C for 16 h, run at 20°C; settings: remark: other sources report otherwise
molecule,measurement,setting,value
human c-NADP-ME H51A/D90A (from UniProt P48163 13-564) (enzyme),stoichiometry N,[1],2
human c-NADP-ME H51A/D139A (from UniProt P48163 13-564) (enzyme),stoichiometry N,[2],2
human c-NADP-ME H142A (from UniProt P48163 13-564) (enzyme),stoichiometry N,[3],2
human c-NADP-ME H142A/D568A (from UniProt P48163 13-564) (enzyme),stoichiometry N,[4],2
human c-NADP-ME W572A (from UniProt P48163 13-564) (enzyme),stoichiometry N,[5],2
B1,stoichiometry N,[6],2
